From patent US7101851 (dated 2006) come the findings set out here.

The chains are these.
T1: alpha subunit of the human FcεRI receptor expressed on Chinese hamster ovary cells (human, UniProt P12319 26-257)
T1 construct: whole, on cells; also called CHO FcεRI+ cells
T1 sequence (looked up): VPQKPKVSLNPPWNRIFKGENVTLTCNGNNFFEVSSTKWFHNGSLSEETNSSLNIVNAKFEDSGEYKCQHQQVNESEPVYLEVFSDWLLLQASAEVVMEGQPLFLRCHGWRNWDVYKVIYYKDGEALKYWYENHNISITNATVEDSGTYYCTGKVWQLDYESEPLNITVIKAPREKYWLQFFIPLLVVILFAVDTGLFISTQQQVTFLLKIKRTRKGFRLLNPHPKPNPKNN

B1: IGE107 (peptide)
peptide: Ac-NLPCTEGPWGWVCM
modifications: disulfide 4-13 (inferred)
notes: synthetic; As printed it lacks the Arg before the first Cys

Bridges are numbered along the chain shown (N, C = ends). Where no end group is shown, it is not given here. [ ]: non-standard residue; d: D form. The star is where a group is joined. Biotin = O=C1N[C@H]2[C@H](CS[C@H]2CCCCC(=O)*)N1; Oic = O=C(O)[C@@H]1C[C@@H]2CCCC[C@@H]2N1; 2Nal = N[C@@H](Cc1ccc2ccccc2c1)C(=O)O; Hyp = O=C(O)[C@@H]1C[C@@H](O)CN1; hSer(lactone) = O=C1OCC[C@@H]1N*; Pip = O=C(O)[C@@H]1CCCCN1; NMeA = CN[C@@H](C)C(=O)O; Sar = CNCC(=O)O

This assay has as its target T1, alpha subunit of the human FcεRI …. The assay can be described thus: inhibition of 125I-IgE binding to CHO cells expressing human FcεRI alpha subunit. Here is the method: To determine the ability of peptides to inhibit IgE binding to FcεRI, a cell-based binding assay was used with radiolabeled IgE. Chinese hamster ovary cells expressing the alpha subunit of the human FcεRI receptor were cultured overnight in Falcon 96 well microtiter plates at a concentration of 5 ×10^4 cells per well. The following day the cells were rinsed three times with PBS and then once with F12/DMEM. Peptide stocks were reconstituted in 100 mM Hepes buffered water, pH 7.2, at a concentration of 5 mg/mL. Working concentrations of the peptide were diluted in assay buffer (see below). 75 uL of a desired concentration of peptide was added to the top row of a separate 96 well microtiter plate and serially diluted 1:3 in 50 uL of the assay buffer (F12/DMEM, 1% BSA, 0.05% NaN_3 and 0.025 mM Hepes pH 7.2). Starting concentrations ranged from 50–500 uM. Next, 50 uL of the diluted peptide was transferred to the 96 microtiter well plate containing a monolayer of CHO FcεRI+ cells. […] Cells were […]
As for Ac-NLPRCTEGPWGWVCM-NH2 (disulfide 5-14 (inferred), synthetic) [IGE058], the half-inhibitory concentration (IC50) stood at 1.8 µM.

Regarding B1, the IC50 came out at 28 µM. Regarding NLPRCTEGPWGWVCM-NH2 (disulfide 5-14 (inferred), synthetic) [IGE057], the IC50 was found to be 0.8 µM.

With NLPRCTEGPAGWVCM (disulfide 5-14 (inferred), synthetic) [IGE072], the IC50 is 81.5 µM. This IC50 lies about 100-fold higher than the previous one.

Regarding NLPRCTEAPWGWVCM (disulfide 5-14 (inferred), synthetic) [IGE079], the half-inhibitory concentration (IC50) is 462 µM. With NLPRCTEGPWGAVCM (disulfide 5-14 (inferred), synthetic) [IGE073] the figure was 118 µM. Next, NLPRCTEGPWGWYCM (disulfide 5-14 (inferred), synthetic) [IGE077]: 126 µM; NLPRCTEGPWGWVCI (disulfide 5-14 (inferred), synthetic) [IGE075]: 1.4 µM; NLPRCTEGPWAWVCM (disulfide 5-14 (inferred), synthetic) [IGE074]: 43 µM. Next, Ac-NLPRCTEGPWGLVCM (disulfide 5-14 (inferred), synthetic) [IGE109]: 10.6 µM. As to Ac-NLPRCTEGPWGWACM (disulfide 5-14 (inferred), synthetic) [IGE209], the half-inhibitory concentration (IC50) came to 14.3 µM. This IC50 and that of the molecule before are within 1.5-fold of each other. Next, Ac-NLPRCAEGPWGWVCM (disulfide 5-14 (inferred), synthetic) [IGE208]: 6.85 µM; Ac-NLPRCTEGPVGWVCM (disulfide 5-14 (inferred), synthetic) [IGE106]: 84 µM; Ac-NLPRCTEGPWGWVCMAAD-NH2 (disulfide 5-14 (inferred), synthetic) [IGE042]: 1.5 µM.

Ac-NLPRCTEGPWGWVCMADD-NH2 (disulfide 5-14 (inferred), synthetic) [IGE031] displayed a 50% inhibitory concentration (IC50) of 1.1 µM. This IC50 and that of the molecule before are within 1.5-fold of each other. Take NLPRCTEGPNGWVCMAAD-NH2 (disulfide 5-14 (inferred), synthetic) [IGE051]: the 50% inhibitory concentration (IC50) worked out at 23.7 µM. Next, Ac-NLPRCTEGPKGWVCMADD-NH2 (disulfide 5-14 (inferred), synthetic) [IGE032]: 10.8 µM; Ac-NLPRCTAGPWGWVCMAAD-NH2 (disulfide 5-14 (inferred), synthetic) [IGE059]: 10.5 µM. Next, Ac-NLPRCTEGPNGWVCMAAD-NH2 (disulfide 5-14 (inferred), synthetic) [IGE050]: 19.4 µM; NLPRCTEGPWGWVCMAAD-NH2 (disulfide 5-14 (inferred), synthetic) [IGE043]: 1.4 µM; Ac-NLPRCTEGPWGWVCM (disulfide 5-14 (inferred), synthetic) [IGE063]: 1.8 µM. Next, PRCTEGPWGWVCM-NH2 (disulfide 3-12 (inferred), synthetic) [IGE069]: 34 µM; Biotin-NLPRCTEGPWGWVCM (disulfide 5-14 (inferred), synthetic) [IGE078]: 3.4 µM; Ac-NLPRCTEGPAWGWVCM (disulfide 5-15 (inferred), synthetic) [IGE125]: 259 µM. For the molecule Ac-NLPRCTEG[Sar]WGWVCM (disulfide 5-14 (inferred), synthetic) [IGE097], the IC50 came out at 84 µM. With Ac-NLPRCTEG[Pip]WGWVCM (disulfide 5-14 (inferred), synthetic) [IGE095] the figure was 23 µM; with Ac-NLPRCTEG[Oic]WGWVCM (disulfide 5-14 (inferred), synthetic) [IGE100], 364 µM. Next, LPRCTEGPWGWVCM-NH2 (disulfide 4-13 (inferred), synthetic) [IGE068]: 3.3 µM; Ac-NLPRCTEG[NMeA]WGWVCM (disulfide 5-14 (inferred), synthetic) [IGE096]: 44 µM; NLPRCTEGPWGWVC-NH2 (disulfide 5-14 (inferred), synthetic) [IGE091]: 12.8 µM.

For NLPRCTEGPWGWVCM (disulfide 5-14 (inferred), synthetic) [IGE062], the IC50 came out at 1 µM. Next, Ac-NLPRCTEG[NMeA]WGWVCM-NH2 (disulfide 5-14, synthetic) [IGE086]: 60 µM; Ac-NLPRCTEGPWGWVC[hSer(lactone)] (disulfide 5-14 (inferred)) [IGE133]: 2.5 µM. Next, Ac-NLPRCTEGPWGWVC-NH2 (disulfide 5-14 (inferred), synthetic) [IGE092]: 20 µM. Next, NLPRCTEGPWGWVCMAY (disulfide 5-14 (inferred), synthetic) [IGE076]: 2 µM. Ac-NLPRCTEGP[2Nal]GWVCM (disulfide 5-14 (inferred), synthetic) [IGE103] had an IC50 of 1.2 µM. Compared with the last molecule, the IC50 is about 1.7-fold lower. With Ac-EIQECTEGPWGWVCM-NH2 (disulfide 5-14 (inferred), synthetic) [IGE090] the figure was 7.6 µM.

For Ac-NLPRCTEG[Sar]WGWVCM-NH2 (disulfide 5-14, synthetic) [IGE087], the half-maximal inhibitory concentration (IC50) worked out at 136 µM. Next, Ac-NLPRCTEG[Pip]WGWVCM-NH2 (disulfide 5-14, synthetic) [IGE085]: 38.5 µM; Ac-NLPRCTEG[Hyp]WGWVCM (disulfide 5-14 (inferred), synthetic) [IGE101]: 580 µM.

For orientation: IC50 means the concentration at which inhibition is half-maximal.
